Target: T1, RIG-I (recombinant) (human? (GeneID 23586), UniProt O95786 1-925)
T1 sequence: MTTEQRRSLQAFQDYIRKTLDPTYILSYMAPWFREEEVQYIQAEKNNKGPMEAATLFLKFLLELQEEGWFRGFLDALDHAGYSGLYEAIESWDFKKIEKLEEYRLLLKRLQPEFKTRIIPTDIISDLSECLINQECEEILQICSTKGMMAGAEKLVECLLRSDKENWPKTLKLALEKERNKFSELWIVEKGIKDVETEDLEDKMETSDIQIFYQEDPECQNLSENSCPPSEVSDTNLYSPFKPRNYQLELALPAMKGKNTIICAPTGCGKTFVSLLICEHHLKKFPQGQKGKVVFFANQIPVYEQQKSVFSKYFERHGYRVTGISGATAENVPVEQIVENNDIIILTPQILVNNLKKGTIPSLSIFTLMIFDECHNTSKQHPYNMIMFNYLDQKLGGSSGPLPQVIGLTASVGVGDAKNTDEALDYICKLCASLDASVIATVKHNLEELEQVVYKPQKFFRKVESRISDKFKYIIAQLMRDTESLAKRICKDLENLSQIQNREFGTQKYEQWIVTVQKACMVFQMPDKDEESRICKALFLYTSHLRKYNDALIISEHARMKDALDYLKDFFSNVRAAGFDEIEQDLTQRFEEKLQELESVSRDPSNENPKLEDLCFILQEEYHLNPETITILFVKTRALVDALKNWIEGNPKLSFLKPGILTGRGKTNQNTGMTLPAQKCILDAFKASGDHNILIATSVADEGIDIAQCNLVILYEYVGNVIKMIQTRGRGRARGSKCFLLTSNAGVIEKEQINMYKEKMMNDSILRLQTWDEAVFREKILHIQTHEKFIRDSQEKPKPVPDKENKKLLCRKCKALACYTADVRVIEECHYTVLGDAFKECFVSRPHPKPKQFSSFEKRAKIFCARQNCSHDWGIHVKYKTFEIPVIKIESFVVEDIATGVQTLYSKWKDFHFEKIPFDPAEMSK
Assay: EMSA

B1: 5'-pppA synthetic 24 bp dsRNA (dsRNA)
RNA 1: AGCAAAAGCAGGGUGACAAAGACA
RNA 2: UGUCUUUGUCACCCUGCUUUUGCU
modifications: 5'-ppp on sense strand only
Kd: 0.4 nM

— article doi:10.1101/2023.12.22.573000
